Reference: US20260055173A1

Columns and labels:
[1] = molecular target: monkey PD-1 (ACRO, His tag) (monkey) (UniProt B0LAJ3); assay: ELISA, monkey PD-1 (His tag) coated, anti-human IgG Fc-HRP
[2] = molecular target: human VEGF (ACRO, His tag) (human) (UniProt P15692); assay: ELISA, human VEGF (His tag) coated, anti-human IgG Fc-HRP
[3] = molecular target: biotin-labeled human VEGF (ACRO, biotinylated protein) (human) (UniProt P15692); assay: dual (bridging) ELISA: human PD-1 (His tag) coated, antibody, then biotinylated human VEGF, streptavidin-HRP
Chain of biotin-labeled human VEGF (ACRO, biotinylated protein) (human) (P15692 other isoform, or with tags, fused parts or gaps limits assumed): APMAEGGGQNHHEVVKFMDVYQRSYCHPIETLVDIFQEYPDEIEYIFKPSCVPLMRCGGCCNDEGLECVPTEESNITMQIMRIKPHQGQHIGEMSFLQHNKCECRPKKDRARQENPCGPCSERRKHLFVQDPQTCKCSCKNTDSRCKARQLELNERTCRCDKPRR

Chain of monkey PD-1 (ACRO, His tag) (monkey) (B0LAJ3 entry or part of it limits assumed, form in doubt): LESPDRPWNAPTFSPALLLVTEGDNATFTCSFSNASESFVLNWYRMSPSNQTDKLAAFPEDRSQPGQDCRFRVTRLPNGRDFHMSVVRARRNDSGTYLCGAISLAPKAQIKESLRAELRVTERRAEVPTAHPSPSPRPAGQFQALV
Chain of human VEGF (ACRO, His tag) (human) (P15692 other isoform, or with tags, fused parts or gaps limits assumed): as the sequence (P15692 other isoform, or with tags, fused parts or gaps limits assumed) above

EC50 [1]	TOP OD [1]	TOP OD [2]	TOP OD [3]	Substance
0.187 nM	3.08 OD450	–	–	Keytruda (antibody)
0.153 nM	2.99 OD450	0.048 OD450	0.048 OD450	Opdivo (antibody)
